From US20220251595A1, “ENGINEERED ATRLP23 PATTERN RECOGNITION RECEPTORS AND METHODS OF USE” (priority 2019, published 2022)

B1: AtRLP23+TM-AtSOBIR1-3×FLAG: AtRLP23 apoplastic, eJM and TM domains, AtSOBIR1 cytoplasmic domain, 3×FLAG; SEQ ID NO: 41, 42 (protein)
chain: MSKALLHLHFLSLFLLCCVCHSSIFTLNFHFTGIVACRPHQIQAFTKFTNEFDTRGCNNSDTFNGVWCDNSTGAVAVLQLRKCLSGTLKSNSSLFGFHQLRYVDLQNNNLTSSSLPSGFGNLKRLEGLFLSSNGFLGQVPSSFSNLTMLAQLDLSYNKLTGSFPLVRGLRKLIVLDLSYNHFSGTLNPNSSLFELHQLRYLNLAFNNFSSSLPSKFGNLHRLENLILSSNGFSGQVPSTISNLTRLTKLYLDQNKLTSSFPLVQNLTNLYELDLSYNKFFGVIPSSLLTLPFLAHLALRENNLAGSVEVSNSSTSSRLEIMYLGSNHFEGQILEPISKLINLKHLDLSFLNTSYPIDLKLFSSLKSLRSLDLSGNSISSASLSSDSYIPLTLEMLTLRHCDINEFPNILKTLKELVYIDISNNRMKGKIPEWLWSLPLLQSVTLGNNYFTGFQGSAEILVNSSVLLLYLDSNNFEGALPDLPLSIKGFGVASNSFTSEIPLSICNRSSLAAIDLSYNNFTGPIPPCLRNLELVYLRNNNLEGSIPDALCDGASLRTLDVSHNRLTGKLPRSFVNCSSLKFLSVINNRIEDTFPFWLKALPNLQVLTLRSNRFYGPISPPHQGPLGFPELRIFEISDNKFTGSLPPNYFVNWKASSRTMNQDGGLYMVYEEKLFDEGGYGYTDALDLQYKGLHMEQAKALTSYAAIDFSGNRLEGQIPESIGLLKALIAVNISNNAFTGHIPLSMANLENLESLDMSRNQLSGTIPNGLGSISFLAYINVSHNQLTGEIPQGTQITGQSKSSFEGNAGLCGLPLKESCFGTGAPPMYHQKQEDKEEEEEEEEEEEEVLNGRAVAIGYGSGLLLGLAIAQVIASYKLIIQAIRGSEKPPGPSIFSPLIKKAEDLAFLENEEALASLEIIGRGGCGEVFKAELPGSNGKIIAVKKVIQPPKDADELTDEDSKFLNKKMRQIRSEINTVGHIRHRNLLPLLAHVSRPECHYLVYEYMEKGSLQDILTDVQAGNQELMWPARHKIALGIAAGLEYLHMDHNPRIIHRDLKPANVLLDDDMEARISDFGLAKAMPDAVTHITTSHVAGTVGYIAPEFYQTHKFTDKCDIYSFGVILGILVIGKLPSDEFFQHTDEMSLIKWMRNIITSENPSLAIDPKLMDQGFDEQMLLVLKIACYCTLDDPKQRPNSKDVRTMLSQIKHSDYKDHDGDYKDHDLDAAAADYKDDDDK
modifications: Fusion protein
B2: AtRLP23-AtPEPR1-3×FLAG: AtRLP23 apoplastic and eJM domains, AtPEPR1 TM and kinase domains, 3×FLAG; SEQ ID NO: 572, 573 (protein)
chain: MSKALLHLHFLSLFLLCCVCHSSIFTLNFHFTGIVACRPHQIQAFTKFTNEFDTRGCNNSDTFNGVWCDNSTGAVAVLQLRKCLSGTLKSNSSLFGFHQLRYVDLQNNNLTSSSLPSGFGNLKRLEGLFLSSNGFLGQVPSSFSNLTMLAQLDLSYNKLTGSFPLVRGLRKLIVLDLSYNHFSGTLNPNSSLFELHQLRYLNLAFNNFSSSLPSKFGNLHRLENLILSSNGFSGQVPSTISNLTRLTKLYLDQNKLTSSFPLVQNLTNLYELDLSYNKFFGVIPSSLLTLPFLAHLALRENNLAGSVEVSNSSTSSRLEIMYLGSNHFEGQILEPISKLINLKHLDLSFLNTSYPIDLKLFSSLKSLRSLDLSGNSISSASLSSDSYIPLTLEMLTLRHCDINEFPNILKTLKELVYIDISNNRMKGKIPEWLWSLPLLQSVTLGNNYFTGFQGSAEILVNSSVLLLYLDSNNFEGALPDLPLSIKGFGVASNSFTSEIPLSICNRSSLAAIDLSYNNFTGPIPPCLRNLELVYLRNNNLEGSIPDALCDGASLRTLDVSHNRLTGKLPRSFVNCSSLKFLSVINNRIEDTFPFWLKALPNLQVLTLRSNRFYGPISPPHQGPLGFPELRIFEISDNKFTGSLPPNYFVNWKASSRTMNQDGGLYMVYEEKLFDEGGYGYTDALDLQYKGLHMEQAKALTSYAAIDFSGNRLEGQIPESIGLLKALIAVNISNNAFTGHIPLSMANLENLESLDMSRNQLSGTIPNGLGSISFLAYINVSHNQLTGEIPQGTQITGQSKSSFEGNAGLCGLPLKESCFGTGAPPMYHQKQEDKEEEEEEEEEEEEVLNGRIVLIAVLSSLLVLVVVLALVFICLRRRKGRPEKDAYVFTQEEGPSLLLNKVLAATDNLNEKYTIGRGAHGIVYRASLGSGKVYAVKRLVFASHIRANQSMMREIDTIGKVRHRNLIKLEGFWLRKDDGLMLYRYMPKGSLYDVLHGVSPKENVLDWSARYNVALGVAHGLAYLHYDCHPPIVHRDIKPENILMDSDLEPHIGDFGLARLLDDSTVSTATVTGTTGYIAPENAFKTVRGRESDVYSYGVVLLELVTRKRAVDKSFPESTDIVSWVRSALSSSNNNVEDMVTTIVDPILVDELLDSSLREQVMQVTELALSCTQQDPAMRPTMRDAVKLLEDVKHLARSCSSDSVRSDYKDHDGDYKDHDLDAAAADYKDDDDK
modifications: Fusion protein

Columns and labels:
corn protoplasts [1] = test: Calcium burst in transiently transfected corn protoplasts, R-GECO1.2 fluorescence reporter; type: cell-based, Zea mays; conditions: Example 3, FIG. 4; 1 μM PpNLP20; 40 minutes; 384-well
corn protoplasts [2] = test: Calcium burst in transiently transfected corn protoplasts, apoaequorin luminescence reporter

| Molecule | responsiveness to PpNLP20 treatment compared to AtRLP23-3×FLAG (total transient increase of fluorescence) (corn protoplasts [1]) | Ca^2+ burst in response to all tested NLP peptides (corn protoplasts [2]; Example 6, FIG. 8, CgNLP24b, FgNLP24c, FvNLP24a, SmNLP24) | increase in Ca^2+ compared to control buffer treatment (corn protoplasts [2]; FIG. 8, all peptides tested) |
| --- | --- | --- | --- |
| B1 | increased responsiveness | – | – |
| B2 | – | Ca^2+ burst | statistically significant |
